Biological target: chicken CD8αα homodimer (chicken)
Assay: crystal structure; sitting-drop vapour diffusion at 291 K, 10 mg/ml; cCD8αα and pMHC-I mixed at a 2:1 molar ratio at 277 K overnight; three crystals: pBF2*1501, cCD8αα/pBF2*1501, cCD8αα/pBF2*0401; two complexes (A and B) in the asymmetric unit of each co-crystal

chicken CD8αα homodimer (receptor)
stoichiometry N: 2

From article PMC7719794
